Biological target: T1, GAL4^DBD-SIN3B (UniProt O75182 1-1162)
T1 sequence (looked up): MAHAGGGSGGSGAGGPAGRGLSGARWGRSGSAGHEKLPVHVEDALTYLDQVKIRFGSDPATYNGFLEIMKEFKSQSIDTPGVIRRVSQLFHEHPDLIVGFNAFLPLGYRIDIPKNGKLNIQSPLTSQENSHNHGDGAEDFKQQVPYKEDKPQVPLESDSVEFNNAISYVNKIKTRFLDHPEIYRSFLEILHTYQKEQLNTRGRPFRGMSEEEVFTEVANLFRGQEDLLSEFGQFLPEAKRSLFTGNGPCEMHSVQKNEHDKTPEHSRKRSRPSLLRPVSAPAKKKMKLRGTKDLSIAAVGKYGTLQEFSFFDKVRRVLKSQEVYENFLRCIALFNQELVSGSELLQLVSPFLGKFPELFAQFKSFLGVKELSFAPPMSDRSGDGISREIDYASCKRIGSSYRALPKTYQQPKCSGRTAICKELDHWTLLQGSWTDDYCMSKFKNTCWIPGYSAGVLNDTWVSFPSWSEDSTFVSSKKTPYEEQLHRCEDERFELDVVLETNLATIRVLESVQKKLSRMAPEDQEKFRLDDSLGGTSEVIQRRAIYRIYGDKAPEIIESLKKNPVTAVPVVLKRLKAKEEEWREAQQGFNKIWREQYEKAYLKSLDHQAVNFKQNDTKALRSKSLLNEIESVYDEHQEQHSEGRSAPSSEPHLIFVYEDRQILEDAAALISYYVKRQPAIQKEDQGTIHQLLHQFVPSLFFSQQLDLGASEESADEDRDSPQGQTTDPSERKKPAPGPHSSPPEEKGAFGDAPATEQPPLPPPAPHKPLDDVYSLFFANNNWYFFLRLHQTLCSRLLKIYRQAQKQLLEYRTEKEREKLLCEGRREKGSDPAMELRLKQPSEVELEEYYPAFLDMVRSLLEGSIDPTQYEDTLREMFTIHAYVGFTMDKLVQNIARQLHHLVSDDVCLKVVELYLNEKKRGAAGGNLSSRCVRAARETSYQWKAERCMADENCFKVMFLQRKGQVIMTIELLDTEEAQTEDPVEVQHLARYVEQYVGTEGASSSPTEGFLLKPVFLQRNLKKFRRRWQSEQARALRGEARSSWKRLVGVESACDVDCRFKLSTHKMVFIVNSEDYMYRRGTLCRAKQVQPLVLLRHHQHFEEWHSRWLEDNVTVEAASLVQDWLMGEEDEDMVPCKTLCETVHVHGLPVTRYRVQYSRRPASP
Assay: two-hybrid

B1: VP16^AD-MAD (natural protein, UniProt Q05195 1-221, looked up)
chain: MAAAVRMNIQMLLEAADYLERREREAEHGYASMLPYNNKDRDALKRRNKSKKNNSSSRSTHNEMEKNRRAHLRLCLEKLKGLVPLGPESSRHTTLSLLTKAKLHIKKLEDCDRKAVHQIDQLQREQRHLKRQLEKLGIERIRMDSIGSTVSSERSDSDREEIDVDVESTDYLTGDLDWSSSSVSDSDERGSMQSLGSDEGYSSTSIKRIKLQDSHKACLGL
fold decrease in luciferase activity against the empty vectors: 3.7 fold

Reference: PMC4529816 (Molecular cancer therapeutics, 2015)
